# Measurements as given in the supplement of paper PMC7125110.
# ± gives the standard error. Variants at the floor of the assay were thinned out.
# B1: glmS ribozyme (parent)
# chain: AUAAAAGCGCCAGAACUACAGAAAUGUAGUUGACGAGGAGGAGGUUUAUCGAAUUUUCGGCGGAUGCCUCCAAA
# What was measured:
# Details in all cases: with glucosamine-6-phosphate
# glucosamine-6-phosphate [1] = variants of: B1; assay: self-cleavage kobs at 640 uM GlcN6P; higher = faster cleavage; RNA array
# In short: (§1)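 Glucosamine-6-phosphate, from 40 μM to 10 mM in HEPES/KCl/Mg(OAc)2 buffer, was flowed over sequenced MiSeq chips carrying barcoded ribozyme variants transcribed in situ by E. coli RNA polymerase. A hybridised Cy3 probe tracked the variants at 37 °C as tiles were imaged over ~14 h. kobs, kcat and KM were obtained by fitting normalised per-tile medians to exponential decays and then applying weighted Michaelis–Menten fits across concentrations.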
# glucosamine-6-phosphate [2] = variants of: B1; assay: self-cleavage kobs at 2500 uM GlcN6P; higher = faster cleavage; RNA array
# In short: as §1
# glucosamine-6-phosphate [3] = variants of: B1; assay: self-cleavage kobs at 10000 uM GlcN6P; higher = faster cleavage; RNA array
# In short: as §1
Variant,self-cleavage kobs at 640 uM GlcN6P (glucosamine-6-phosphate [1]) [s⁻¹],self-cleavage kobs at 2500 uM GlcN6P (glucosamine-6-phosphate [2]) [s⁻¹],self-cleavage kobs at 10000 uM GlcN6P (glucosamine-6-phosphate [3]) [s⁻¹]
AUAAAAGCGCCAGAACUACAGAAAUGUAGUUGACGAGGAGGAGGUUUAUCGAUUUUUCGGCUGAUGCCUCCAAA,< 1e-05,< 1e-05,< 1e-05
AUAAAAGCGUCAGUACUACAGAAAUGUAGUUAACGAGGAGGCGGUUUAUCGAAUUUUCGGCGGAUGCCUCCAAA,< 1e-05,,
AUAAAAGCGCCAGAACUACAGAAAUGUAGUUGACGAGGAGGAGGUUUAUCUAAUUUUCGGCGAAUGCGUCCAAA,9.2e-05 ± 3e-05,,
AUAAAAGCGCCAGAAUUACAGAAAUGUAGUUGACGAGGAGGAGGUUUAUCGAAUAUUCGGCGGAUGCUUCCAAA,0.000364 ± 0.00011,0.00062 ± 0.00021,
AUAAAAUCGCCAGAACUACAGAAAUGUAGUUGACGAGGAGGAGGUUUAUCGAAUUUUCGGCGGAUGUCUCGAAA,7.36e-05 ± 2.2e-05,,
AUAAAAGCGUCAGAACUACAGAAAUGUAGUUAACGAGGAGGAGGUUUAACGAAUUUUCGGCGGAUGCCUCCAAA,< 1e-05,,
AUAAAAGCGCCAGAACUACAGAAAUGUAGCUGACGAGUAGGUGGUUUAUCGAAUUUUCGGCGGAUGCCUCCAAA,< 1e-05,,< 1e-05
AUAAAAGCGCCUGAACUACAGAAAUGUAGUUGAGGAGGAGGAGGUUUAUCUAAUUUACGGCGGAGGCCUCCAAA,< 1e-05,,
AUAAAAGCGCCAGAACUACAGAAAUGUAGUUGAGGAGGAGGAGUUUUAUUGAAUUUUCGGCGGAUGCCUCUAAA,< 1e-05,< 1e-05,
AUAAAAGCGCUAGAACUACAGAAAUGUAGUUGACGAGGAGGAGGUUUUUCGAAUUUUCGGCGGAUUCCUCCAAA,< 1e-05,,
AUAAAAGCCCCAGAACUACAGAAAUGUAGAUGACGAGGAGGAGGUUUACCGAAUUGUCGGCGGAUGCCUCCAAA,< 1e-05,,
AUAAAAGCGCCAGAACUACAGAAAUGUAGGUGACGAAGAGGAGGUUUAUCGAAUUUUCGGCGGAUGCCUCCAAA,9.32e-05 ± 2.2e-05,0.000172 ± 4.2e-05,0.000734 ± 0.00011
AUAAAAGGGGCUGGACUACAGAAAUGUAGUUGACGAGGAGGAAGUUUAUCGAAUUUUUGGCGGAUGCCUCCAAA,< 1e-05,,
AUAAAAGCGCGAGGACUACAGAAAUGUAGUUGAAGAGGAGUAGGUUUACCGAAUUUUCGGCGGAUGCCUCCAAA,< 1e-05,,
AUAAAAGCGCCCGAACUACAGAAAUGUAGUUGACGAGGAGAAGGUUUCUCGAAUUUUCGGCGGAUGCCUCCAAA,< 1e-05,,
AUAAAAGCGCCAGAACUACAGAACUGUAGUUGACGAGGAGGAGGUUGAUCGAAUUUUCGGCGGAUGACUCCAAA,0.000315 ± 7.3e-05,0.000647 ± 0.00024,
AUAAAAGCGCCGGAACUACAGAAAUGUAGUUGACGAGGAGAAGGUUUAUCGAAUUUUCUGCGGAUGCCUCCAAA,< 1e-05,< 1e-05,
AUAAAGGCGCCAGAACUACAGAAAUGUAGUUGACGAAGAGAAGGUUUAUCGAAUUUUCGGCGGAUGCCUCCAAA,< 1e-05,< 1e-05,< 1e-05
AUAAAAGCGCCAGUACUACAGAAAUGUAGUUGACGGGGAAAAGGUUUAUCGAAAUUACGGCGGAUGCCUCUAAA,< 1e-05,,
AUAAAAGCGCCAGAACUACAGAAAUGUAGUUGACGAGGAGGAGGUUCAUCGGAUUUUCGGCGGAUACCUCCAAA,5.64e-05 ± 1.2e-05,0.000112 ± 2.4e-05,
AUAAAAGCGCCAGAACUACAGAAAUGUAGUUGACGAGGAGGAGGUUUGUUGUAUUUUCGGCGGAUGCCUGCAAA,4.03e-05 ± 2e-05,,
AUAAAAGAGCCAGAACUACAGAAAUGUAGUUGACGAGGAGGAGGUUUAUCGAAUUUGCGGCGGAUGCCUCCAAA,< 1e-05,< 1e-05,
AUAAAAGCGCCAGAAUUACAGAAAUGUAGUUGACGAGGAGGAGGUUUAUCGAGUUUUCGGCGGAUGCCUACAAA,0.000224 ± 3.5e-05,0.000232 ± 6.5e-05,

Variant,self-cleavage kobs at 640 uM GlcN6P (glucosamine-6-phosphate [1]) [s⁻¹],self-cleavage kobs at 2500 uM GlcN6P (glucosamine-6-phosphate [2]) [s⁻¹],self-cleavage kobs at 10000 uM GlcN6P (glucosamine-6-phosphate [3]) [s⁻¹]
AUAAAAGCGACAGAACUACAGAAAUGUAGUUGACGAGGUGGAGGUUUAUCGGAUUUUCGGCGGAUGCCUCCAAA,< 1e-05,< 1e-05,< 1e-05
AUAAAAGCGCCAGAACUACAGAAAUGUAGUUGACGAGGUGGAGGUUUACCGAAUUUUCGGCGGAUGCGUCCAAA,< 1e-05,< 1e-05,< 1e-05
AUAAAAGCGCCAGAACUACAGAAAUGUAGUCGACGAAGAGGAGGUUUAUCGAAUUUUCGGCGGAUGCCUCCAAA,0.000113 ± 2.3e-05,0.000119 ± 1.8e-05,0.000359 ± 3.4e-05
AUAAAAGCGCCAGAACUACAGAAAUGUACUUGACGAGGGGGAGGUAUAUCGAAUUUUCGGCGGAGGCCUCCAAA,0.000174 ± 6.2e-05,0.000622 ± 0.00019,
AUAAAAGCGCCAGCACUACAGAAAUGUAGUUGACGUGAAGGAGGUUUAUCGAAUUUUCGGCGGAUGCCACCAAA,7.64e-05 ± 1.8e-05,,
AUAAAAGCGCCAGAACUACAGAAAUGUAGUUGACGUGGAGGAGGUUUAUGGAAUUUUCGGCGGAUUCCUCCAAA,0.00107 ± 0.0003,,
AUAAAAGGGCCAGAACUACAGAAAUGUAGUUGACGAGGAGGAGGUUUAUCGAAUUUGCAGCGGAUGCCUCCAAA,< 1e-05,< 1e-05,
AUAAAAGCGCCAGAACUACAGAAAUGUAGUUGGCGAGUAGGAGGUUUACCGAAUUUUCGGCGGAUGCCUCUAAA,< 1e-05,< 1e-05,
AUAAAAGCGCCAGACCUACAGAAAUGUAGUUGACGACGAGGAGGUUUAUCGAAUUUUCGGCGGAUGCCUCCAAA,< 1e-05,,
AUAAAAGCGCCAGAACUACAGAAAUGUAGUUGACGAGGAGGAGGUUUAUCGAAUUUUCGGGGGGUGCCUCGAAA,0.000141 ± 3.7e-05,,
AUAAAAGCGCCAGAACUACAGAAAUGUAUUUGACGCGGAGGAGUUUUAUCGAAUUUUCGGCGGAUGCCUCCAAA,< 1e-05,,< 1e-05
AUAAAAGCGGCAGAACUACAGAAAUGUAGUUGACGAGGAGGAGGUUUAUCGAAUUUUGGGCCGAUGCCUCCAAA,< 1e-05,,
AUAAAAGCGCCAGAACUACAGAAAUGUAGUUGACGAGGAGGAGGUUUAUCGAAUUUUCUGCAGAUGCCUCCAAA,< 1e-05,,< 1e-05
AUAAAAGCUCCAGAAGUACAGAAAUGUAUUUGACGAGGAUAAGGUUUAUCGAAUUUUCGGCGGAUUCCUCCAAA,< 1e-05,< 1e-05,
AUAAAAGCGCCAGGACUACAGAAAUGUAGUUGACGAGGAGGACGUUUAUCUAAUUUUCGGCGGGUGCCUCCAAA,< 1e-05,,
AUAAAAGCGCCAGAACUACAGAAAUGUAGUUGACGAGGAGGAGGUUUAUCGAAUGUUCGGCGGAUCCCUUCAAA,0.000456 ± 0.0001,0.000343 ± 8.7e-05,
AUAAAAGCGCUAGAACUACAGAAAUGUAGUUGACGAGGAGGAGGUUUAUCGAAUUUUCGGCGGAUGACUCUAAA,4.57e-05 ± 1.8e-05,5.18e-05 ± 1.8e-05,
AUAAAAGCGACCGAACUACAGAAAUGUAGUUGACGAGGAGGAGGUUUAUCGAAUUUUCGGCGCAUGCCUCGAAA,< 1e-05,,
AUAAAAGGUGCAGAACUACAGAAAUGUAGUUGACGAGGAGGAGGUUUAUCGAAUUUUCGGCGGAUGCCUCCAAA,< 1e-05,,
AUAAAAGCGCCAAAACUACAGAAAUGUAGUUGACGAGGAGGAGGUUUAUCGCAUUUUGGGCGGAUGCCGCCAAA,4.44e-05 ± 2e-05,,
AUAAAAGCGCCAGAACUACAGAAAUGUAGUUGACGAAGAGGAGGUUUAUCGAAUCGUCGGCGGAUGCCUCCAAA,0.000171 ± 5.1e-05,,
AUAAAAGCGCCAGAACUACAGAAAUGUAGUUAGCGAGGAGGAGGUUUAUAGAAUUUUCGGCGGAUGCCUCCAAA,< 1e-05,,< 1e-05
